Assay results as given in PMC7021899, “N-terminal domain of the architectural protein CTCF has similar structural organization and ability to self-association in bilaterian organisms” (Scientific Reports, 2020).

What was measured:
[1] = biological target: N-terminal domain of Drosophila virilis CTCF (1-144 aa), without Thioredoxin (Drosophila virilis); assay: SAXS; BM29 BioSAXS beamline (ESRF), 277 K, at least two concentrations; molecular mass from extrapolated I0 and protein standards
[2] = biological target: Thioredoxin-tagged N-terminal domain of Drosophila virilis CTCF (1-144 aa) (Drosophila virilis); assay: cross-linking; Thioredoxin-tagged NTDs, increasing concentrations of glutaraldehyde
[3] = biological target: the molecule itself; assay: as above
[4] = biological target: the molecule itself; assay: SAXS; BM29 BioSAXS beamline (ESRF), 277 K, at least two concentrations; molecular mass from extrapolated I0 and protein standards

Molecule: N-terminal domain of Drosophila virilis CTCF (1-144 aa), without Thioredoxin (domain or fragment)
- stoichiometry N [1]: 2

Molecule: Thioredoxin-tagged N-terminal domain of Drosophila virilis CTCF (1-144 aa) (domain or fragment)
- stoichiometry N [2]: 2

B1: Thioredoxin-tagged N-terminal domain of Drosophila melanogaster CTCF (1-163 aa) (domain or fragment, UniProt Q9VS55 1-163, looked up)
chain: MPRRTKKDEDPEDLQTFLNNFHKEIEGNSDEKVVNTILEAISAEAIDLDENGAEAGGSKPMEEAEADLDHAEEAEEEEEDDEDKYFIDDEGNCYIKTTPKKQKELQKKLKQAAAKPGKATRSVVSTATNKSINLRPAKSTPKATTSKPPPEPKAISVRPARAA
notes: CTCF, Drosophila melanogaster, N-terminal domain, residues 1-163; also called dmCTCF NTD; Thioredoxin-tagged Drosophila CTCF NTD
- stoichiometry N [3]: 2

B2: N-terminal domain of Drosophila melanogaster CTCF (1-163 aa), without Thioredoxin (domain or fragment, UniProt Q9VS55 1-163, looked up)
chain: MPRRTKKDEDPEDLQTFLNNFHKEIEGNSDEKVVNTILEAISAEAIDLDENGAEAGGSKPMEEAEADLDHAEEAEEEEEDDEDKYFIDDEGNCYIKTTPKKQKELQKKLKQAAAKPGKATRSVVSTATNKSINLRPAKSTPKATTSKPPPEPKAISVRPARAA
notes: Modified pET32a(+) with TEV-cleavable Thioredoxin-6xHis-tag. 'Without Thioredoxin' is said for SEC; for SAXS and DLS the tag state is inferred from the printed monomer mass (18 kDa); also called dmCTCF NTD; dmCTCF-NTD
- stoichiometry N [4]: 4
